According to publication PMC11375011, “Inducible auto-phosphorylation regulates a widespread family of nucleotidyltransferase toxins” (Nature Communications, 2024):
“Also recorded” adds a separate entry of the source.

Biological target: MenA1
Conditions: sites T39

MenT1
other: observed/calculated Stokes radius ratio against the heterotrimer: weaker; reference 0.97; also recorded: same; reference 0.97
